T1: TcfA peptide amino acids 140-160 conjugated to bovine serum albumin (Bordetella pertussis, conjugated to bovine serum albumin (BSA))
T1 construct: Protein fragment coated on ELISA plates; BSA conjugate; also called aa140-160
T1 peptide: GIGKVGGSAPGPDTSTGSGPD

T2: TcfA peptide amino acids 288-304 conjugated to bovine serum albumin (Bordetella pertussis, conjugated to bovine serum albumin (BSA))
T2 construct: Protein fragment coated on ELISA plates; BSA conjugate
T2 peptide: QLPERGDDAGPKPPEGE

T3: TcfA peptide amino acids 305-323 conjugated to bovine serum albumin (Bordetella pertussis, conjugated to bovine serum albumin (BSA))
T3 construct: Protein fragment coated on ELISA plates; BSA conjugate
T3 peptide: GGDEGPQPPQGGGEQDAPE

T4: TcfA protein fragment amino acids 40-374 (Bordetella pertussis)
T4 construct: Not conjugated to BSA
T4 chain: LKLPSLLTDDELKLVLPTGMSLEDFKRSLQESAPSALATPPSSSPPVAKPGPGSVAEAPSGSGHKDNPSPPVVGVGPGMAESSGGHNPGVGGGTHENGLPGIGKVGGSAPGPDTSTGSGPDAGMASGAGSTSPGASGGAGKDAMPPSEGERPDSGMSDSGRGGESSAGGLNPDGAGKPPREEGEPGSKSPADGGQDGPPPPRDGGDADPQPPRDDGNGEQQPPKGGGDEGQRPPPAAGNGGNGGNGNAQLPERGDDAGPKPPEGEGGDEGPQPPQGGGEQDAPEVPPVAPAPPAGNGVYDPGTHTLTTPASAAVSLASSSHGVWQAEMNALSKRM


Legend:
Experiment in all cases: indirect ELISA, plates coated with TcfA protein fragment
[1] = target: T1, TcfA peptide amino acids 140-160 …
[2] = target: T2, TcfA peptide amino acids 288-304 …
[3] = target: T3, TcfA peptide amino acids 305-323 …
[4] = target: T4, TcfA protein fragment amino acids 40-374

Row | Binder | binding result [1] | binding result [2] | binding result [3] | other results
1 | anti-TcfA monoclonal antibody 10B1 (antibody, V domains shown) VH: EVQLQQSGAELVKPGASVKLSCTASGFNIKDTYIHWVKQRPEQGLEWIGRIDPANGNTIYASKFQGKAPITAVTSSNTAYMQFSSLTSGDTAVYYCTAMDYWGQGTSVTVSS VL: not shown | binds | – | – | –
2 | anti-TcfA monoclonal antibody 7E11 (antibody, V domains shown) VH: EVQLQQSGAELVKPGASVKLSCTASGFNIKDTYIHWVKQRPEQGLEWIGRIDPANGNIIYASKFQGEATITADTSSNTAYMQLSSLTSGDTAVYYCSAMDYWGQGTSVTVSS VL: not shown | binds | – | – | –
3 | anti-TcfA monoclonal antibody 13E11 (antibody, V domains shown) VH: EVQLVESGGGLVKPGGSRKLSCAASGFTFSDYGMHWVRQAPEKGLEWVAYISSGSSTIYYADTVKGRFTISRDNAKNTLFLQMTSLRSEDTAMYYCARPRSGRYFDYWGQGTTLTVSS VL: not shown | – | binds | binds | –
4 | anti-TcfA monoclonal antibody 23F8 (antibody, V domains shown) VH: EVQLVESGGGLVKPGGSRKLSCAASGFTFSDYGMHWVRQAPEKGLEWVAYISSGSRTIYYADTVKGRFTISRDNAKNTLFLQMTSLRSEDTAMYYCARLGYGYDWYFDVWGTGTTVTVSS VL: not shown | – | binds | – | –
5 | anti-TcfA monoclonal antibody 14D12 (antibody, V domains shown) VH: EVMLVESGGALVKPGGSLKLSCAASGITFSNYAMSWIRQTPEKRLEWVASISSGGSYIYYSDSVKGRFTISRDNARNTLNLQMSSLRSEDTAMYYCVRGAHGNFDYWGQGTTLTVSS VL: DIVLTQSPASLAVSLGQRATISCRTSETVDYDGDSYMNWYQQKSGQPPKLLISGASNVESGVPARFSGSGSGTDFSLNIHPVEEDDITMYFCQQNRKLPYTFGSGTKLEMK | – | binds | – | –
6 | anti-TcfA monoclonal antibody 20F4 (antibody, V domains shown) VH: QIQLVQSGPELKKPGETVKISCKASGYTFTNYGMNWVKQAPGKGLKWMGWINTYTGEPTYADDFKGRFAFSLETSATTAYLQINNLKNEDTATYFCARAATGYFDYWGQGTTLTVSS VL: DIVMSQSPSSLAVSAGEKVTMSCKSSQSLLYSSNQKNYLAWYQQKPGQSPKLLIYWASTRESGVPDRFTGSGSGTDFTLTISSVKAEDLAVYYCQQYYNEYTFGGGTKLEIK | – | – | binds | –
7 | anti-TcfA monoclonal antibody 14G11 (antibody, V domains shown) VH: EVKLVESGGGLVQPGGSLSLSCAASGFTFTDYYMSWVRQPPGKALEWLGFIRNKANGYTTEYSASVKGRFTISRDNSQSILYLQMNALRAEDSATYYCARYRRDYYGSLNYYTMDYWGQGTSVTVSS VL: DIQMTQSPASLSASVGETVTITCRASENIYSYLAWYQQKQGKSPQLLVYNAKTLAEGVPSRFSGSGSGTQFSLKINSLQPEDFGSYYCQNHYGIPLTFGAGTKLELK | – | – | binds | –
8 | anti-TcfA monoclonal antibody 18B2 (antibody, V domains shown) VH: QVQLQQSGAELVRPGTSVKMSCKAAGYTFTNYWIGWVKQRPGHGLEWIGDIYPGGVYTNYNENFKGKATLTADTSSSTAHMQLSSLTSEDSAIYYCVRGGKYGNFFAMDYWGQGTSVTVSS VL: DIVITQDELSNPVTSGESVSISCRSSKSLLYKDGKTYLNWFLQRPGQSPQLLIYLMSTRASGVSDRFSGSGSGTDFTLEISRVKAEDVGVYYCQQLVEYPFTFGSGTKLEIK | – | – | – | binding result [4]: binds
9 | anti-TcfA monoclonal antibody 3E6 (antibody, V domains shown) VH: EVKLVESGGGLVQPGGSLRLSCATSGFTFTDYYMSWVRQPPGKALEWMGFIRNKAKGYTTDYSASVKGRFTISRDDSQSILYLQMNTLRPEDSATYYCARNYDYSMDYWGQGTSVTVSS VL: DIQLTQSPASLSASVGETVTITCRASDNIHKYLAWYQQKQGKSPQRLVYNAKTLADGVPSRFNGSGSGTQYSLKINSLQPEDFGIYYCQHFWSTPLTFGAGTKLELK | binds | – | – | –

— patent US20240092877A1 (DXDISCOVERY, published 2024)
